Assay results from publication PMC11869522, “Competitive displacement of lipoprotein lipase from heparan sulfate is orchestrated by a disordered acidic cluster in GPIHBP1” (Journal of Lipid Research, 2025).

B1: GPIHBP1^Cluster1-neutral: GPIHBP1 mutant with all Glu/Asp replaced by Gln/Asn at residues 1–17 (protein)
chain: QTQQQQQQQNQNHGPNNYDEEDEDEVEEEETNRLPGGGSRVLLRCYTCKSLPRDERCNLTQNCSHGQTCTTLIAHGNTESGLLTTHSTWCTDSCQPITKTVEGTQVTMTCCQSSLCNVPPWQSSRVQDPTG
modifications: Tyr18 sulfation present in less than 40%; one bi-antennary N-linked glycosylation; left off: uPAR domain III, N-terminal, cleaved
B2: GPIHBP1^Cluster2-neutral: GPIHBP1 mutant with all Glu/Asp replaced by Gln/Asn at residues 19–30 (protein)
chain: QTQQEEEEEDEDHGPDDYNQQNQNQVQQQQTNRLPGGGSRVLLRCYTCKSLPRDERCNLTQNCSHGQTCTTLIAHGNTESGLLTTHSTWCTDSCQPITKTVEGTQVTMTCCQSSLCNVPPWQSSRVQDPTG
modifications: Tyr18 sulfation absent; one bi-antennary N-linked glycosylation; left off: uPAR domain III, N-terminal, cleaved

What was measured:
bLPL = test: PCSK3 cleavage of LPL (SDS-PAGE densitometry); format: biochemical, bovine; conditions: 20 μM bLPL, 25°C; for protection of LPL against ANGPTL4-induced cleavage by PCSK3 / protection of LPL against PCSK3 cleavage triggered by spontaneous unfolding: 0–240 min; for protection of LPL against PCSK3 cleavage triggered by spontaneous unfolding: 4 units PCSK3, without ANGPTL4, 25 μM GPIHBP1 variant
Experimental: To determine if charge-variants of GPIHBP1 confer distinct resistance to ANGPTL4-facilitated cleavage of LPL after Arg^324 by PCSK3 ([33]), we incubated purified bLPL (20 μM) with PCSK3 (4 units) for 0–240 min, either alone or in the presence of ANGPTL4 (2 μM) and/or GPIHBP1 (25 μM) at 25°C in 10 mM 2-(N-morpholino) ethane sulfonic acid (MES), 150 mM NaCl, 1 mM CaCl2, pH 7.0. We tested four different GPIHBP1 variants: GPIHBP1^1–131, GPIHBP1^Cluster1-neutral, GPIHBP1^Cluster2-neutral, and GPIHBP1^34–131 (LU domain only). PCSK3 cleavage was stopped by boiling in SDS-PAGE sample buffer (reduced and alkylated) and the degree of cleavage was assessed by SDS-PAGE using 12% Bis-Tris SDS-PAGE gels followed by densitometric scanning of the corresponding Coomassie blue–stained SDS-polyacrylamide gels.
Secretion of LPL by adipocytes is modulated in an autocrine manner by ANGPTL4. […] In the presence of endogenous ANGPTL4, a significant fraction of LPL was cleaved by PCSK3 in the trans-Golgi compartment. […] The presence of GPIHBP1 dramatically delayed PCSK3 cleavage of LPL ([33]). To assess the role of the acidic tail in GPIHBP1 on this delay, we incubated 20 μM bLPL with 4 units of PCSK3 either alone or in the presence of 2 μM ANGPTL4. We observed that the presence of sub-stoichiometric amounts of ANGPTL4 reduced the half-life of intact bLPL from 110 min to less than 5 min (Fig. 5A). […] Our results emphasized the essential role of GPIHBP1’s acidic tail in protecting LPL against ANGPTL4-induced cleavage by PCSK3.
Fig. 5 GPIHBP1 reduces ANGPTL4-facillitated PSCK3 cleavage of LPL. 20 μM bLPL was incubated with 4 units of PSCK3 for 0–240 min at 25°C and the extent of LPL cleavage after Arg^324 was assessed by densitometric scanning of Coomassie–blue stained polyacrylamide after SDS-PAGE of reduced and alkylated samples. A: PSCK3 cleavage of LPL is accelerated by the presence of 2 μM ANGPTL4—present at sub-stoichiometric amounts compared to bLPL (20 μM). 25 μM intact GPIHBP1, but not GPIHBP1^34–131 mitigates PSCK3 cleavage of LPL. B: Both GPIHBP1^Cluster1-neutral and GPIHBP1^Cluster2-neutral rescue LPL from cleavage by PSCK3 in the absence of ANGPTL4 and both are more efficient than GPIHBP1^34–131. C: in the presence of 2 μM ANGPTL4, 25 μM GPIHBP1^Cluster1-neutral protects LPL from PSCK3 cleavage more efficiently than the GPIHBP1^Cluster2-neutral, which indicates a more prominent role of acidic cluster 2 in protecting LPL from ANGPTL4-catalyzed unfolding and subsequent PSCK3 cleavage. Shown are the mean values (±SEM) for intact LPL relative to that present at time 0 min for 3–5 independent time-course experiments. Some curves appear in multiple panels to increase clarity.

mouse LPL = test: Native PAGE binding to mouse LPL; conditions: 4 µM LPL with 18 µM GPIHBP1, 30 min on ice; Coomassie staining
Experimental: Distinct impacts of disordered acidic clusters in GPIHBP1
To confirm interactions between puri fi ed human GPIHBP11–131, G P IH B P 1 Cluster1-neutral, or GPIHBP1 Cluster2-neutral with human, mouse, and bovine LPL, these protein pairs were incubated for 30 min on ice (4 µM LPL with 18 µM GPIHBP1) before they were analyzed by native PAGE. As th ese concentrations were well above t he K D of 0.2 nM for the wildtype LPL•GPIHBP1 interaction, LPL is saturated with GPIHBP1 in these experiments (1). […]
spect r a for the purified GPIHBP1 variants wer e r ecor ded at 25°C in Helman cuvettes (path- length of 1 mm) with a scan rate of 50 nm/ min c ove r i ng the range of 190- 250 nm, averaging three scans for each protein. Spectra for the pr ote i ns were compared after converting to molar ellipticity using the following equation, […] where, Mw is the molecular weight of the protein, c is the protein concentration in g/l, l is the pat h-length of the cuvette, Nr number of amino acid residues in the protein.
Figure S1 : Binding of GPIHBP1 charge mutants to LPL as assessed by Native PAGE. The electrophoretic mobility of GPIHBP1 variants alone or in presence of purified human LPL ( A), b ovine LPL (B), and murine LPL (C) was assessed by native PAGE followed by Coomassie blue staining. […]

[1] = 4 units PCSK3, 2 μM ANGPTL4, 25 μM GPIHBP1 variant

Row | Molecule | protection of LPL against ANGPTL4-induced cleavage by PCSK3 (bLPL; [1]) | half-life of intact LPL (bLPL; 4 units PCSK3, 2 μM ANGPTL4, 25 μM GPIHBP1 variant, pH 7.0, less than 5 min without GPIHBP1) [min] | protection of LPL against PCSK3 cleavage triggered by spontaneous unfolding (bLPL) | binding to mLPL as judged by native PAGE (mouse LPL)
1 | B1 | significant protection | 25 | prevented that cleavage completely | bound
2 | B2 | marginal protection | – | prevented that cleavage completely | bound
